From US20190317095A1 (ALLERGAN, published 2019)

B1: Ab632 anti-SNAP25197 rMAb (Human-3C1A5) (antibody)
heavy: not shown
light: DVVMTQTPLTLSVTIGQPASISCKSSQSLLNTNGKTYLTWLIQRPGQSPQRLIYLVSKLDSGVPDRFSGSGSGTDFTLKISRVEAEDLGVYYCLQSSHFPFTFGSGTKLEIKRTVAAPSVFIFPPSDEQLKSGTASVVCLLNNFYPREAKVQWKVDNALQSGNSQESVTEQDSKDSTYSLSSTLTLSKADYEKHKVYACEVTHQGLSSPVTKSFNRGEC
B2: Ab635 anti-SNAP25197 rMAb (Murine-3C1A5) (antibody)
heavy: QVKLQESGAELVKPGASVKISCKASGYTFTDHSIHWVKQKPGQGLEWIGYLFPGNGNFEYNEKFKGKATLTADKSSSTVYMYLNSLTSEDSAVYFCKRMGYWGQGTTVTVSSAKTTPPSVYPLAPGSAAQTNSMVTLGCLVKGYFPEPVTVTWNSGSLSSGVHTFPAVLESDLYTLSSSVTVPSSPRPSETVTCNVAHPASSTKVDKKIVPRDCGCKPCICTVPEVSSVFIFPPKPKDVLTITLTPKVTCVVVDISKDDPEVQFSWFVDDVEVHTAQTQPREEQFNSTFRSVSELPIMHQDWLNGKEFKCRVNSAAFPAPIEKTISKTKGRPKAPQVYTIPPPKEQMAKDKVSLTCMITDFFPEDITVEWQWNGQPAENYKNTQPIMNTNGSYFVYSKLNVQKSNWEAGNTFTCSVLHEGLHNHHTEKSLSHSPGK
light: not shown
B3: original non-recombinant 3C1A5 mAb purified from ascites (antibody, V domains shown)
VH: QVKLQESGAELVKPGASVKISCKASGYTFTDHSIHWVKQKPGQGLEWIGYLFPGNGNFEYNEKFKGKATLTADKSSSTVYMYLNSLTSEDSAVYFCKRMGYWGQGTTVTVSS
VL: DVVMTQTPLTLSVTIGQPASISCKSSQSLLNTNGKTYLTWLIQRPGQSPQRLIYLVSKLDSGVPDRFSGSGSGTDFTLKISRVEAEDLGVYYCLQSSHFPFTFGSGTKLEIK

Experiments:
[1] = target: SNAP25197, BoNT/A-cleaved SNAP25 (human) (human, UniProt P60880 1-197); assay: Western blot, SiMa cell lysates +/- BoNT/A
[2] = target: T1, SNAP25206, full-length SNAP25 (rat) (rat, UniProt P60881 1-206); assay: Western blot, rat embryonic cortical cell lysates +/- BoNT/A
[3] = target: SNAP25197, BoNT/A-cleaved SNAP25 (rat) (rat, UniProt P60881 1-197); assay: Western blot, summary (rat cortical lysates; SiMa lysates also run)
[4] = target: T2, SNAP25206, full-length SNAP25 (human) (human, UniProt P60880 1-206); assay: Western blot, SiMa cell lysates treated with BoNT/A, BoNT/C, BoNT/E or no toxin
[5] = target: T3, SNAP25198, BoNT/C-cleaved SNAP25 (human) (human, UniProt P60880 1-198); assay: as above
T3 construct: range 1-198

[6] = target: T4, SNAP25180, BoNT/E-cleaved SNAP25 (human) (human, UniProt P60880 1-180); assay: as above
T4 construct: range 1-180

[7] = target: T2, SNAP25206, full-length SNAP25 (human); assay: IHC, human back skin biopsies +/- onabotulinumtoxinA (FIG. 9)
[8] = target: T1, SNAP25206, full-length SNAP25 (rat); assay: IHC, vehicle-treated rat glabrous skin (FIG. 8F-J)

T1 sequence (P60881 whole entry): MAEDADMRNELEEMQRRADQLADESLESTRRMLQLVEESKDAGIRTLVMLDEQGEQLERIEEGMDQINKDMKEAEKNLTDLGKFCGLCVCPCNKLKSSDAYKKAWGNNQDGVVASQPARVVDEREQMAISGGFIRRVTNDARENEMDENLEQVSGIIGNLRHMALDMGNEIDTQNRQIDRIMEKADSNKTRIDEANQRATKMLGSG
T2 sequence (P60880 whole entry): as the sequence (P60881 whole entry) above
T3 sequence (P60880 1-198 limits assumed): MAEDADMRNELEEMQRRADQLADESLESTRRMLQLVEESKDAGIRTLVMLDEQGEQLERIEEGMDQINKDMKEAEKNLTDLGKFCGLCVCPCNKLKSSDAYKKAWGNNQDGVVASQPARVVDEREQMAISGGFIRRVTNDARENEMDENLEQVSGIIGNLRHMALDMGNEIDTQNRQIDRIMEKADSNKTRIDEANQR
T4 sequence (P60880 1-180 limits assumed): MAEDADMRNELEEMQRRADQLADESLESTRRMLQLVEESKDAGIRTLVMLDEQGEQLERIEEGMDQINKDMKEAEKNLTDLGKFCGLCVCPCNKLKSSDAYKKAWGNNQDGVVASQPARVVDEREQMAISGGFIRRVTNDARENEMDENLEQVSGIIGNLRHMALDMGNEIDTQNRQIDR
Chain of SNAP25197, BoNT/A-cleaved SNAP25 (human) (P60880 1-197 limits assumed): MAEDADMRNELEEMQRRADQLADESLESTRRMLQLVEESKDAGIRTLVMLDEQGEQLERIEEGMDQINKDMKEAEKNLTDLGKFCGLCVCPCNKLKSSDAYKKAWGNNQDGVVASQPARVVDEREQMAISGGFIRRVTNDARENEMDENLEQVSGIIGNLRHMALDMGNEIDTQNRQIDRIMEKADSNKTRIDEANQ
Chain of SNAP25197, BoNT/A-cleaved SNAP25 (rat) (P60881 1-197 limits assumed): as the sequence (P60880 1-197 limits assumed) above

| Binder | binding result [1] | binding result [2] | binding result [3] | binding result [4] | binding result [5] | binding result [6] | binding result [7] | binding result [8] |
| --- | --- | --- | --- | --- | --- | --- | --- | --- |
| B1 | binds | no binding | binds | no binding | no binding | no binding |  |  |
| B2 |  | no binding |  |  |  |  | no binding |  |
| B3 |  |  |  |  |  |  |  | no binding |
